The target of assay [1] is rat neuropeptide FF receptor (NPFF1) (rat) (UniProt Q9EP86). In words: competition vs [125I]D-Tyr-NPFF, COS-7 membranes (SEM 0; may be a floor value).
Assay [2] addresses rat spinal cord membrane receptor. Put plainly: competition binding, rat spinal cord membranes (SEM 0; may be a floor value).
The target is the same in assay [3]. In words: competition binding, rat spinal cord membranes.

No end group written: not given here.

As usually defined, the pKi is −log10 of the Ki, conventionally taken in molar units. Read a high pKi as a low Ki.

Sequence of rat neuropeptide FF receptor (NPFF1) (rat) (Q9EP86 whole entry): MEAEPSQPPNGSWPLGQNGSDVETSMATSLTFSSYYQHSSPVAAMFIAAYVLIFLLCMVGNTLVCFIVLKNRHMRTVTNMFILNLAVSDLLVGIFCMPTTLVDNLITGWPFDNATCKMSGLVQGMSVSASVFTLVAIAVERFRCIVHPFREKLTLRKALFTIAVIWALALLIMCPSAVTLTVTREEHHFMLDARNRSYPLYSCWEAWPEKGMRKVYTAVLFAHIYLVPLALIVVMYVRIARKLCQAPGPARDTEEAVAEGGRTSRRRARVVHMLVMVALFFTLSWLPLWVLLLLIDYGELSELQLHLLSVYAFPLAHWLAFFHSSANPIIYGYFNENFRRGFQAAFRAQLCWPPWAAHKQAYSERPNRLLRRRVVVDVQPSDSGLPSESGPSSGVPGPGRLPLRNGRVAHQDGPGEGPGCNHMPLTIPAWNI

On to Met5-Arg6-Phe7-Enk-OH (peptide), for which the pKi in assay [1] and in assay [2] was 5 throughout.
On to Tyr-MIF-1 (peptide), for which, in assay [1], the pKi came out at 5.
On to rat NPFF (FLFQPQRF-NH2) (peptide), for which the pKi in assay [3] stood at 9.05.
In assay [3], H-KNQFIRF-NH2 [AF-1 (FMRF-like peptide H2N-Lys-Asn-Gln-Phe-Ile-Arg-Phe-NH2)] registered a pKi of 7.56.
The same measure, in the same setting: the result for PDVDHVFLRF-NH2 [Schisto(FLRFNH2) (Pro-Asp-Val-Asp-His-Val-Phe-Leu-Arg-Phe-amide)] reads 6.39; that for H-KHQYLRF-NH2 [AF-2 (H-Lys-His-Gln-Tyr-Leu-Arg-Phe-NH2)], 7.96.
In assay [3], AGEGLSSPFWSLAAPQRF-NH2 [rat A-18-F-amide (…-NH2)] returned a pKi of 9.

(Values after patent publication US6849727.)
